Two molecules from publication PMC2190708 (Nucleic Acids Research, 2007) can be followed below.

For one series, the target named is T1, CthPnkp (Acetivibrio thermocellus, UniProt A3DJ38).
T1 sequence (A3DJ38 1-870): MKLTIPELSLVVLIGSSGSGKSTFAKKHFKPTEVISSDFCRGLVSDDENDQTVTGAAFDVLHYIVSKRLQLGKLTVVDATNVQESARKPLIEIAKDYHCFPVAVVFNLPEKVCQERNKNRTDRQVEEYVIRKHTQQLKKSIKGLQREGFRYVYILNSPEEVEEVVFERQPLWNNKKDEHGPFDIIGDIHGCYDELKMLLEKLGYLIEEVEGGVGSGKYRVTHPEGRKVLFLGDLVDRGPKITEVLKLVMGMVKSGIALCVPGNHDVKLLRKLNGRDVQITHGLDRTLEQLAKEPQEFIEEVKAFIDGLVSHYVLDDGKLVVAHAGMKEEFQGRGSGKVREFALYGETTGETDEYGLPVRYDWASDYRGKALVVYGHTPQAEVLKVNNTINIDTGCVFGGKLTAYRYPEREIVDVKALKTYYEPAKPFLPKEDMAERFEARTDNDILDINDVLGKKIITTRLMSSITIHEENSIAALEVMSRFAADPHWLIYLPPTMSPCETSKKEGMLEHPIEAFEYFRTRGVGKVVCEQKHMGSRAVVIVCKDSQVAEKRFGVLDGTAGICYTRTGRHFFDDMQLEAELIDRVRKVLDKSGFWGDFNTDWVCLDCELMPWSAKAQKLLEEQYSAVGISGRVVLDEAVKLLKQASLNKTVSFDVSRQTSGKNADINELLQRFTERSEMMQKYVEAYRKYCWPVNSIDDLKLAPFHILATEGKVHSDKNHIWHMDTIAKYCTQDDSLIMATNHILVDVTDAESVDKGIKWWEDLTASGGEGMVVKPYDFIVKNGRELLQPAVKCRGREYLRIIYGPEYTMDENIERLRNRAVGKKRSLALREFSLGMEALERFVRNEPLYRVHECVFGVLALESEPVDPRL
The series is described as follows: p-nitrophenol release. Type of series: biochemical. The note with it: Tris-HCl pH 7.0, 0.5 mM MnCl2, data not shown.

Substrate in series [1]: O=[N+]([O-])c1ccc(OP(=O)(O)O)cc1
The series is described as follows: purified protein. The note with it: Mn2+; exact conditions of titration not given, data not shown.

Substrate in series [2]: O=[N+]([O-])c1ccc(OP(=O)(O)Oc2ccc([N+](=O)[O-])cc2)cc1
The series is described as follows: purified protein. The note with it: Mn2+; exact conditions of titration not given, data not shown.

Broadly, the Km is the concentration of substrate that gives half-maximal velocity. As to `O=[N+]([O-])c1ccc(OP(=O)(O)c2ccccc2)cc1` [compound ②, p-nitrophenyl phenylphosphonate], on CthPnkp, the Km came to 67 mM.

B1: λ-Pase (Escherichia phage Lambda) (protein)
chain: MRYYEKIDGSKYRNIWVVGDLHGCYTNLMNKLDTIGFDNKKDLLISVGDLVDRGAENVECLELITFPWFRAVRGNHEQMMIDGLSERGNVNHWLLNGGGWFFNLDYDKEILAKALAHKADELPLIIELVSKDKKYVICHADYPFDEYEFGKPVDHQQVIWNRERISNSQNGIVKEIKGADTFIFGHTPAVKPLKFANQMYIDTGAVFCGNLTLIQVQGEGA
Turning to B1, the Km came out at 5.0 ± 0.1 mM in “purified protein [1]” and 10 ± 1.6 mM in the series “purified protein [2]”.
